According to publication PMC8395313, “Membrane Association Modes of Natural Anticancer Peptides: Mechanistic Details on Helicity, Orientation, and Surface Coverage” (International Journal of Molecular Sciences, 2021):
Ends that are not written are not given here.

Target: the molecule itself
Assay: dynamic light scattering; free peptide without lipid; DLS at 20 °C in CD buffer (10 mM Na-phosphate, 100 mM Na2SO4, pH 7.0); the methods give 20 or 40 µM peptide for the DLS samples

B1: Temporin-La (peptide)
peptide: LLRHVVKILEKYL-NH2
notes: 13 residues; MW = 1622.6 as printed in the methods; also called Tempo-La; TEMPO-LA; source: synthetic peptide (NovoPro Bioscience Inc., Shanghai; purity >= 95%)
B1: binds.
